The target of assay [1] is B. subtilis S72N TRAP (trp RNA-binding attenuation protein, S72N mutant) (B. subtilis) (UniProt P19466). The experiment in a line: native MS; nanoflow electrospray of purified S72N TRAP picked by SEC (elution volume less than 14.5 ml); methods in Text S1.
The target is the same in assay [2]. Kind of assay: crystal structure; hanging drop vapor diffusion at 18°C; protein in 10 mM triethanolamine pH 8.0, 100 mM NaCl, 15 mM L-tryptophan, 33.5 mg/ml; six subunits in the asymmetric unit, 12-mer generated by the crystallographic 2-fold axis of P2(1)2(1)2.

Among the data in article PMC3435397 are stoichiometry N values, retold here.

For orientation: stoichiometry N means the number of molecules, sites or subunits per partner or assembly.

As to “B. subtilis S72N TRAP (trp RNA-binding attenuation protein, S72N mutant) (from UniProt P19466 1-71) (natural protein)”, the stoichiometry N in assay [1] and in assay [2] was 12 throughout.
